In patent publication US20150098900A1 (Genentech, published 2015):
Numbering of substitutions follows the chain as printed.

Key:
[1] = molecular target: T1, human FcRH5c (full length human FcRH5) (human, UniProt Q96RD9 16-977); test: FACS, EJM cells transfected with human FcRH5, anti-mouse Alexa-647; negative control
T1 construct: Used on transfected SVT2, 293, EJM and OPM2 cells and endogenously on MOLP-2 cells and CD19+ B cells; also called IRTA2c; huFcRH5
T1 sequence: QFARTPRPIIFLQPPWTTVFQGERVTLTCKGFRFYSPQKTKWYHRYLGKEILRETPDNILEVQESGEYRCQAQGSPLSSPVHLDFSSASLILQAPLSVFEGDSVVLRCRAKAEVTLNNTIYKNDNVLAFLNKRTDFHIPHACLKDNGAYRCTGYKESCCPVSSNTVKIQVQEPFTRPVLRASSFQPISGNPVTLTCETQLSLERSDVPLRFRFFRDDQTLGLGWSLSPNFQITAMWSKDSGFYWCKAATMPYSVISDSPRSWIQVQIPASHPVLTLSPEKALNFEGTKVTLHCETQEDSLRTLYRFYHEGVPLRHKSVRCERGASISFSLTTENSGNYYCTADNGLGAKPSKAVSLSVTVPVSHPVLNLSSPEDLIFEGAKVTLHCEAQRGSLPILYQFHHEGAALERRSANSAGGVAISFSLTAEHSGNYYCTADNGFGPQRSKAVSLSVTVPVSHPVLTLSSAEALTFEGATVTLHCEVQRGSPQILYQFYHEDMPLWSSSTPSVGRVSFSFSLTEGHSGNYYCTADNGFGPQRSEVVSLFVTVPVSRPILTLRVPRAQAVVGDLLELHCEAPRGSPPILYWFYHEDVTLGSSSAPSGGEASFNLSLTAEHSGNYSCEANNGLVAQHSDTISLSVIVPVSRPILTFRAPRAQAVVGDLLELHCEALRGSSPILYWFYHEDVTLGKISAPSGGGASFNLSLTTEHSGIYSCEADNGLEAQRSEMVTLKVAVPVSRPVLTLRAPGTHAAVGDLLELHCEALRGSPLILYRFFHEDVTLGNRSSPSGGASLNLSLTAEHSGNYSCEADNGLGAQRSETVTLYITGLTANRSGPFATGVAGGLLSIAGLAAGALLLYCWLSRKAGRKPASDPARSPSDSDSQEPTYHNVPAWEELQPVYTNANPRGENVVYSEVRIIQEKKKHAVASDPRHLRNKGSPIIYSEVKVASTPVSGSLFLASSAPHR

[2] = molecular target: T1, human FcRH5c (full length human FcRH5); test: FACS, OPM2 cells transfected with human FcRH5, anti-mouse Alexa-647; negative control
[3] = molecular target: T1, human FcRH5c (full length human FcRH5); test: FACS, MOLP2 cells (endogenous FcRH5), 4 ug/ml
Description: (§1) To test binding to endogenously FcRH5 expressing cancer cells or FcRH5 transfected cancer cells, cells were lifted using EDTA/PBS. 1×10⁵ cells were suspended in 100 ul and incubated […] with primary antibodies (1 volume of non-IgG quantitated subclone supernatant, 4 ug/ml IgG quantified subclone supernatant or […] purified monoclonal antibodies). Cells were washed twice with FACS buffer (PBS 1% BSA 2 mM EDTA) and incubated with 1:1000 dilution of goat anti-mouse secondary labeled with PE or 1:100 of goat anti-mouse APC. Cells were washed twice with FACS buffer and Flow cytometry analysis was done on a FACSCalibur. Direct […] of antibodies was done according to manufacturer's protocol (Invitrogen), when indicated. To analyze binding to NK or B cells, 1 million human PBMC were incubated with 4 ug/ml IgG quantified subclone supernatants for 60 min, washed and incubated with 1:100 dilution of goat anti-mouse secondary labeled with APC. Cells were then washed again twice and stained using anti-CD56 (PE; BD Biosciences #555516) and anti-CD19 (PE; BD Biosciences #340364) prior flow cytometry and analysis of binding to human CD56+ and CD19+ cells.

[4] = molecular target: T1, human FcRH5c (full length human FcRH5); test: FACS, MOLP2 cells (endogenous FcRH5), 4 ug/ml; legend printed under FIG. 3E
Description: as §1

[5] = molecular target: T2, FcRH3 endogenously expressed on human NK cells (CD56+ cells of PBMC) (human, UniProt Q96P31 18-734); test: FACS, CD56+ NK cells of human PBMC, anti-mouse APC
T2 construct: whole, on cells; FcRH1 was also detected on CD56+ cells; also called endogenously expressed FcRH3
T2 sequence (looked up): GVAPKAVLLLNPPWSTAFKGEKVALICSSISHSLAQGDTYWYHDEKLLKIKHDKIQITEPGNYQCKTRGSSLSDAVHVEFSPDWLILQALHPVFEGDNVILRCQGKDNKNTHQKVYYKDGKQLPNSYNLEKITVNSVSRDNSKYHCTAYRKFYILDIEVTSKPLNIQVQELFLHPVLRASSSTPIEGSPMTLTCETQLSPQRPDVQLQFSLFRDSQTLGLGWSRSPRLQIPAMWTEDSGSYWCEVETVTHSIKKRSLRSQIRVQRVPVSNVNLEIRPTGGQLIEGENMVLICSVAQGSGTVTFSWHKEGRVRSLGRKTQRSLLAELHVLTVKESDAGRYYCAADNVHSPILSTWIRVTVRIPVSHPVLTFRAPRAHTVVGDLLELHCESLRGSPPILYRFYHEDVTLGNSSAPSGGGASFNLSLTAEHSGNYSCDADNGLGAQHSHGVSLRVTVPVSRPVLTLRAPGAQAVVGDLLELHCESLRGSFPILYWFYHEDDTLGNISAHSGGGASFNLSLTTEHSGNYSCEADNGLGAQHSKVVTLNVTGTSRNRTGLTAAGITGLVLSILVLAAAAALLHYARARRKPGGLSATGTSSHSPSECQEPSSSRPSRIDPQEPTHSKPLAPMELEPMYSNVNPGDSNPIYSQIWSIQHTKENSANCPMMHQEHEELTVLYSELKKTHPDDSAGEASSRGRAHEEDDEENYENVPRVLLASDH
Description: as §1
Since the overall signal in the FcRH3-expressing SVT2 cells was low, further testing was done using PBMCs from healthy donors. […]

[6] = molecular target: T1, human FcRH5c (full length human FcRH5); test: FACS, APC-labelled antibodies on SVT2 cells with full-length human FcRH5
[7] = molecular target: T3, soluble FcRH5a isoform with C-terminal HIS-expression tag (human, UniProt Q96RD9-3 16-759); test: ELISA, His-tagged soluble FcRH5a captured by anti-His, anti-mouse HRP, OD 650
T3 construct: mature; also called IRTA2a
T3 sequence (looked up): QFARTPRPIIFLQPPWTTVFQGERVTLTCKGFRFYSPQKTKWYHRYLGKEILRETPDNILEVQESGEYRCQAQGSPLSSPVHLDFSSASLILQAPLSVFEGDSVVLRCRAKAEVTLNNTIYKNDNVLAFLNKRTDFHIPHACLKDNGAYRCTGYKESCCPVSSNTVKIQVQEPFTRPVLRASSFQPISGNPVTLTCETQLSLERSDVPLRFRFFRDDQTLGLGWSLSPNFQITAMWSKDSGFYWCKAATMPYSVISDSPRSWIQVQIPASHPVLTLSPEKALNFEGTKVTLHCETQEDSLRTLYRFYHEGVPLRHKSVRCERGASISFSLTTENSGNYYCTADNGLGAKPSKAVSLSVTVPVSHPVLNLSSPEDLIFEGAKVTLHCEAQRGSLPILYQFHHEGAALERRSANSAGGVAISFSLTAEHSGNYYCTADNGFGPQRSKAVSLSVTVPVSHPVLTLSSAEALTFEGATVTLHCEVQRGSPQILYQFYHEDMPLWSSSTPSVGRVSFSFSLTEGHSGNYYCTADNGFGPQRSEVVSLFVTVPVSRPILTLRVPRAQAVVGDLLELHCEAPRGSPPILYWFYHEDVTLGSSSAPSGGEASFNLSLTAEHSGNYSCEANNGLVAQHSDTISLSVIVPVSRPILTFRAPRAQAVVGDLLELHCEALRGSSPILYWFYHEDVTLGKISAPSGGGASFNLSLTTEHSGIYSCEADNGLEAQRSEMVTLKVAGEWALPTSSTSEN
Description: For this, 293 cells were transfected to express the soluble isoform with C-terminal HIS-expression tag. Expression of FcRH5a protein was confirmed with Western blot analysis using anti-HIS antibody. A 65 kD band was detected in conditioned media from FcRH5a but not vector transfected cells (not shown). For the ELISA, plates were coated with anti-HIS capture antibody and incubated 1 hour with 1:10 diluted conditioned media including the HIS-tagged soluble FcRH5a isoform. The E11 monoclonal antibodies were used for detection in 1-0.001 ug/ml concentration, incubated for 1 hour followed by incubation with goat anti-mouse HRP antibody and finally with TMB-substrate.

[8] = molecular target: T1, human FcRH5c (full length human FcRH5); test: FACS, 293 cells with wild type FcRH5c, supernatants 2.5 ug/ml, anti-mouse PE
Description: Two separate tests were designed to address dependency of binding on the presence of membrane proximal Ig-domain 9 (E11). First a truncated human FcRH5c mutant was generated that lacks Ig-domains 6-9 (amino acids 464-850 of SEQ ID NO:1) including the expected binding site for the antibodies derived from E11 immunization. This construct with N-terminal gD-tag was expressed in 293 cells and subjected to 2.5 ug/ml subclone supernatants followed by PE labeled goat anti-mouse secondary antibody (1:1000 dilution). None of the tested subclones bound to 293 cells that express the truncated human FcRH5c (FIG. 4A). In contrast binding was detected to 293 cells that express wild type human FcRH5c. Binding of gD or non-isoform selective antibody clone (10A8) was not altered by the mutation.

Question: Which Mean:FL4-H [1] does the source give for mIgG (antibody) here?
Answer: The Mean:FL4-H was 10.3.

Question: And the Mean:FL4-H [2]?
Answer: The Mean:FL4-H was 6.43.

B1: 3G7.1.5 (antibody, IgG2a, V domains shown)
VH: EVQLQQSGPELVKPGASVKMSCKASGYTFTDYYMKWVRQNHGKRLEWIGDINPYNGDTFYNQKFKDKATLTVDKSSSTAYMQFNSLTSEDSAVYYCARGLYFFHYWGQGTTLTVSSASTKGPSVFPLAP
VL: DIVLIQSPATLSVTLGGSVSLSCRASQSISNNLHWYQQKSHESPRLLIKFASQSISGIPSRFRGSGSGTDFTLTINSVETEDFGIYFCQQSNNWPQYTFGGGTKLELKRTVAA
notes: parent 3G7 and subclone 3G7.1 treated as the same antibody; also called 3G7.1.mIgG2a
Question: Does B1 bind [3]?
Answer: Result: binds

B2: 5F1.1.5 (antibody, IgG2a, V domains shown)
VH: QVQLQQSGADLVRPGTSVKVSCKASGYAFTNYLIEWVKQRPGQGLEWIGVINPGSGGTNYNEKFKGKATLTADKSSSTAYMQLSSLTSDDSAVYFCARTRNYGYVIDYWGQGTTLTVSSASTKGPSVFPLAP
VL: QAVVTQESALTTSPGETVTLTCRSSTGTVTTSNFANWVQEKPDHLFTGLIGGTSNRAPGVPARFSGSLIGDKAALTITGAQTEDEAIYFCVLWCSNLWVFGGGTKLTVLGQPKAA
notes: parent 5F1 and subclone 5F1.1 treated as the same antibody; also called 5F1.1.mIgG2a
Question: Does B2 bind [4]?
Answer: Result: binds

B3: 1G7.2 (antibody, IgG1, V domains shown)
VH: EVQLQESGPGLVQPSQSLSITCTVSGFSLTRFGVHWVRQSPGKGLEWLGVIWRGGSTDYNAAFMSRLTITKDNSKSQVFFKLNSLKVDDTAIYYCSNHYYGSSDYALDNWGQGTSVTVSSASTKGPSVFPLAP
VL: DIVMTQSHKIMSTSVGDRVSITCKASQDVSNIVVWFQQKPGQSPNLLIYSASYRYTGVPDRFTGSGSGTDFTFTISSVQAEDLAVYYCQQHYSSPYTFGGGTKLEIKRTVAA
notes: Parent 1G7, subclone 1G7.2 and purified 1G7.2.mIgG1 treated as one antibody; also called 1G7.2.mIgG1
Question: Does B3 bind [5]?
Answer: Result: no binding (tested: 4 ug/ml)

Question: Does B3 bind [6]?
Answer: Result: binds

Question: Does B3 bind [7]?
Answer: Result: no binding

B4: 2H7.3 (antibody, IgG2b, V domains shown)
VH: EVQLQQSGPELWKPGASVKMSCKASGYTFTDYYMKWVKQTHGKSLEWIGDINPNNGETFYSQKFKGKATLTVDKSSTTAYMQLNSLTSEDSAVYYCARGLYRFDYWGQGTTLTVSSASTKGPSVFPLAP
VL: EIVLTQSPATLSVTPGDSVSLSCRASQNIRNNLHWYQQKSHESPRLLIKFTSQSISGIPSRFTGSGSGTDFTLSINSVETEDFGMYFCQQSNNWPQYTFGGGTKLEIKRTVAA
notes: Parent 2H7, subclone 2H7.3 and purified antibody treated as one; also called 2H7.3.mIgG2b
Question: Does B4 bind [8]?
Answer: Result: binds

Question: Does B4 bind [7]?
Answer: Result: binds

B5: 5A10.1.3 (antibody, IgG2b, V domains shown)
VH: EVQLQQSGPELWKPGASVKMSCKASGYTFTDYYMKWVKQSHGKSLEWIGDINPNNGETFYNQKFKGKATLTVDKSTSTAYMELNSLTTEDSAVYYCARGLYRFDYWGQGTTLTVSSAASTKGPSVFPLAP
VL: B4 VL with E1D, T10N, T14I, H41Q, T51A, I55M, I58T, S74T, S77T
notes: parent 5A10 and subclone 5A10.1 treated as the same antibody; also called 5A10.1.mIgG2b
Question: With B5 as the molecule, how does the “EC50 (read off the curve)” value [7] read?
Answer: Its value is ~0.02 ng/mL.
